Assays:
Assay in all cases: luciferase complementation assay
[1] = target: N2-SKAP2 DomDIM2 deletion mutant (DIM domain alone); conditions: HEK293T cells; read off a plot
[2] = target: DomDIM1 SKAP1 mutant (DIM domain of SKAP1); conditions: HEK293T cells; read off a plot
[3] = target: N2-SKAP2 (SRC kinase adaptor phosphoprotein 2, wildtype) (UniProt O75563); conditions: HEK293T cells, read off a plot
[4] = target: N1-fused SRC kinases (mean among the nine SRC kinases); conditions: HEK293T cells
[5] = target: C1-fused SRC kinases (mean among the nine SRC kinases); conditions: HEK293T cells

Row | Substance | response (NLR normalized to HCK-N1) [1] | response (NLR normalized to HCK-N1) [2] | ratio to parent [4] | ratio to parent [5] | also measured
1 | C1-fused HCK (hematopoietic cell kinase), wildtype (from UniProt P08631-2) I309A; T311A | 0.29 | 0.07 |  |  | response (normalized NLR) ([3]; parent: est. 85): 16; response (NLR normalized to HCK-N1) [3]: 0.1
2 | C1-fused HCK (hematopoietic cell kinase), wildtype (from UniProt P08631-2) R150A | 8.4 | 2.9 |  |  | 
3 | C1-fused HCK (hematopoietic cell kinase), wildtype (from UniProt P08631-2) Y30F | 0.13 | 0.055 |  |  | 
4 | C1-fused HCK (hematopoietic cell kinase), wildtype (from UniProt P08631-2) Y390F | 3.8 | 0.42 |  |  | 
5 | C1-fused HCK (hematopoietic cell kinase), wildtype (from UniProt P08631-2) Y501F | 7.7 | 3.8 |  |  | 
6 | N1-fused HCK (hematopoietic cell kinase), wildtype (from UniProt P08631-2) I309A; T311A | 0.9 | 0.65 |  |  | response (NLR normalized to HCK-N1) [3]: 1
7 | N1-fused HCK (hematopoietic cell kinase), wildtype (from UniProt P08631-2) R150A | 7.7 | 8.4 |  |  | 
8 | N1-fused HCK (hematopoietic cell kinase), wildtype (from UniProt P08631-2) W234A | 0.6 |  |  |  | 
9 | N1-fused HCK (hematopoietic cell kinase), wildtype (from UniProt P08631-2) Y30F | 1.2 | 0.9 |  |  | 
10 | N1-fused HCK (hematopoietic cell kinase), wildtype (from UniProt P08631-2) Y390F |  | 0.7 |  |  | 
11 | N1-fused HCK (hematopoietic cell kinase), wildtype (from UniProt P08631-2) Y501F | 6.4 | 7 |  |  | 
12 | N2-SKAP2 (SRC kinase adaptor phosphoprotein 2, wildtype) (from UniProt O75563) D129K |  |  | 1.55 | 2.27 | 
13 | N2-SKAP2 (SRC kinase adaptor phosphoprotein 2, wildtype) (from UniProt O75563) D129K; Y75F; Y237F; Y261F |  |  | 0.88 | 1.63 | 
14 | N2-SKAP2 (SRC kinase adaptor phosphoprotein 2, wildtype) (from UniProt O75563) E15A; R18A |  |  | 1.3 | 1.19 | 
15 | N2-SKAP2 (SRC kinase adaptor phosphoprotein 2, wildtype) (from UniProt O75563) E15A; R18A; V24D; F27G; V28E |  |  | 0.41 | 0.48 | 
16 | N2-SKAP2 (SRC kinase adaptor phosphoprotein 2, wildtype) (from UniProt O75563) K161E |  |  | 1.12 | 0.9 | 
17 | N2-SKAP2 (SRC kinase adaptor phosphoprotein 2, wildtype) (from UniProt O75563) R140M |  |  | 0.96 | 0.79 | 
18 | N2-SKAP2 (SRC kinase adaptor phosphoprotein 2, wildtype) (from UniProt O75563) R140M; D129K |  |  | 0.84 | 0.86 | 
19 | N2-SKAP2 (SRC kinase adaptor phosphoprotein 2, wildtype) (from UniProt O75563) V24D; F27G; V28E |  |  | 0.43 | 0.41 | 
20 | N2-SKAP2 (SRC kinase adaptor phosphoprotein 2, wildtype) (from UniProt O75563) V24D; F27G; V28E; D129K |  |  | 0.93 | 1.04 | 
21 | N2-SKAP2 (SRC kinase adaptor phosphoprotein 2, wildtype) (from UniProt O75563) W336K |  |  | 1.64 | 1.48 | 
22 | N2-SKAP2 (SRC kinase adaptor phosphoprotein 2, wildtype) (from UniProt O75563) Y75F; Y237F; Y261F |  |  | 0.76 | 1.01 | 
23 | N2-SKAP2 (SRC kinase adaptor phosphoprotein 2, wildtype) (from UniProt O75563) Y151F; Y197F |  |  | 0.8 | 0.71 | 

Reference: PMC9792355
